In US20100216693A1, “COMPOSITIONS AND METHODS OF TREATING DIABETES” (priority 2005, published 2010):

How the values were obtained:
[1] = biological target: Human insulin (Actrapid) (human); experiment: SPR (Biacore 3000), insulin 0.25-10 µM over C-terminally immobilized insulin; global fit, analyte with two sites competing for one site on the chip; slow off rate
[2] = biological target: Human insulin (Actrapid) (human); experiment: SPR (Biacore 3000), insulin 0.25-10 µM over C-terminally immobilized insulin; global fit, analyte with two sites competing for one site on the chip; rapid off rate

Substance: Human insulin (Actrapid) (ligand; other documents disagree on this pair)
- Kd [1]: 2.71 µM
- Kd [2]: 4.65 µM
